Measurements taken from publication PMC9293779 (2022).

Target: Unmodified H3 (15–39) (Homo sapiens, matured GFP-type chromophore; AG itself is the assayed negative control. Accession is from memory; wild-type AG assumed rather than the monomeric version)
Assay: ITC

Kd: > 1000 µM
B1: Azami-Green (AG) protein alone (natural protein)
chain: MSVIKPEMKIKLCMRGTVNGHNFVIEGEGKGNPYEGTQILDLNVTEGAPLPFAYDILTTVFQYGNRAFTKYPADIQDYFKQTFPEGYHWERSMTYEDQGICTATSNISMRGDCFFYDIRFDGVNFPPNGPVMQKKTLKWEPSTEKMYVRDGVLKGDVNMALLLEGGGHYRCDFKTTYKAKKDVRLPDYHFVDHRIEILKHDKDYNKVKLYENAVARYSMLPSQAK
